One block for each substance: values may come before it.
Experiments:
[1] = molecular target: A1/A3-C1-C2 heterodimer of thrombin-cleaved FVIII (human) (UniProt P00451); assay: optical biosensor, after thrombin cleavage of purified protein
[2] = molecular target: wild-type FVIII (human) (UniProt P00451); assay: cell-based or functional assay
[3] = molecular target: IR8 (90/b/73 R336I/R562K/R740A; del795-1688/Arg336Iso/Arg562Lys/Arg740Ala) (human) (UniProt P00451); assay: cell-based or functional assay
[4] = molecular target: von Willebrand factor (vWF) (human) (UniProt P04275); assay: FVIII-vWF binding ELISA; anti-A2 domain trap, vWF from FVIII-deficient plasma, peroxidase anti-vWF detection
[5] = molecular target: von Willebrand factor (vWF) (human) (UniProt P04275); assay: summary of ELISA and biosensor results
[6] = molecular target: von Willebrand factor (vWF) (human) (UniProt P04275); assay: ELISA and affinity biosensor analysis
[7] = molecular target: von Willebrand factor (vWF) (human) (UniProt P04275); assay: in vitro binding to vWF; method not given
[8] = molecular target: FVIII mutant L/L 2251/2252 L/S (L2252S) (UniProt P00451)
[9] = molecular target: FVIII mutant M/F/L 2199/2200/2252 W/W/S (UniProt P00451)
[10] = molecular target: FVIII mutant M/F 2199/2200 W/W (UniProt P00451)
[11] = molecular target: IR8 (90/b/73 R336I/R562K/R740A; del795-1688/Arg336Iso/Arg562Lys/Arg740Ala) (human) (UniProt P00451); assay: biosensor; IR8 (30 nM) captured on immobilised Mab NMC-VIII/5, vWF added at 10 nM

Substance: A2 subunit of thrombin-cleaved R698L B-domainless FVIII (from UniProt P00451 392-759)
- fold increased rate of A2 subunit dissociation compared to a B domainless FVIII control [1]: 2 fold

Substance: A2 subunit of thrombin-cleaved R698W B-domainless FVIII (from UniProt P00451 392-759)
- fold increased rate of A2 subunit dissociation compared to a B domainless FVIII control [1]: 3 fold

Substance: ESH8, mouse monoclonal anti-light chain factor VIII antibody (American Diagnostica)
- % Of Initial Activity, +ESH8 (APTT after 4 hour incubation at 37 C with FVIII-deficient plasma) [2]: 29%
- % Of Initial Activity, +ESH8 (APTT after 4 hour incubation at 37 C with FVIII-deficient plasma) [3]: 120%

Substance: factor IXa
- apparent affinity for factor IXa, Xase assay with 15% PS [8]: reduced 5-fold
- apparent affinity of factor IXa, Xase assay with saturating PL, 1000 uM [8]: decreased approximately 4-fold
- apparent affinity for factor IXa, Xase assay with 15% PS [9]: reduced 5-fold
- apparent affinity of factor IXa, Xase assay with saturating PL, 1000 uM [9]: decreased approximately 4-fold
- apparent affinity for factor IXa, Xase assay with 15% PS [10]: reduced 5-fold
- apparent affinity of factor IXa, Xase assay with saturating PL, 1000 uM [10]: decreased approximately 4-fold

Substance: wild-type FVIII (from UniProt P00451 20-2351)
- Kd [7]: 0.3 nM

Next, values leading:

- fold lower binding affinity compared to wild-type FVIII [4]: 10 fold
- fold lower affinity than FVIII WT [5]: > 10 fold
- fold reduced affinity compared to rFVIII [6]: 20 fold
Substance: IR8 (90/b/73 R336I/R562K/R740A; del795-1688/Arg336Iso/Arg562Lys/Arg740Ala) (from UniProt P00451 20-812; P00451 1708-2351)

- fold lower binding affinity compared to wild-type FVIII [4]: 2 fold
- Kd [7]: 1.3 nM
Substance: IR8/ESH8 complex (from UniProt P00451 20-812; P00451 1708-2351)

- Kd [11]: 29.6 nM
- koff [11]: 0.0042 s⁻¹
- kon [11]: 140000 M⁻¹ s⁻¹
Substance: von Willebrand factor (vWF) (from UniProt P04275 764-2813)
